Experimental findings from paper PMC5514376 (The Journal of investigative dermatology, 2016) are described below.

This series deals with the molecule itself. The experiment in a line: crystal structure.

B1: keratin 1-keratin 10 helix 2B heterodimer (K1-K10-2B) (complex, human)
chain 1: ESLYQSKYEELQITAGRHGDSVRNSKIEISELNRVIQRLRSEIDNVKKQISNLQQSISDAEQRGENALKDAKNKLNDLEDALQQAKEDLARLLRDYQELMNTKLALDLEIATYRTLLEGE
chain 2: EAWFNEKSKELTTEIDNNIEQISSYKSEITELRRNVQALEIELQSQLALKQSLEASLAETEGRYCVQLSQIQAQISALEEQLQQIRAETECQNTEYQQLLDIKIRLENEIQTYRSLLEGE
In the case of B1, the binding result was “binds”.
